Assay results taken from article PMC13462928 (2026).

Biological target: NUDT5 (Homo sapiens, UniProt Q9UKK9, dNUDT5 ternary complex, engineered CRBNmidi)
Assay: proximity binding assay

Kd: 0.34 nM
B1: CRBNmidi (protein)
chain: MAGEGDQQDAAHNMGNHLPLLPAESEEEDEMEVEDQDSKEAKKPNIINFDTSLPTSHTYLGADMEEFHGRTLHDDDSCQVIPVLPQVMMILIPGQTLPLQLFHPQEVSMVRNLIQKDRTFAVLAYSNVQEREAQFGTTAEIYAYREEQDFGIEIVKVKAIGRQRFKVLELRTQSDGIQQAKVQILPECVLPSTMSAVQLESLNKCQIFPSKPVSREDQCSYKWWQKYQKRKFHCANLTSWPRWLYSLYDAETLMDRIKKQLREWDENLKDDSLPSNPIDFSYRVAACLPIDDVLRIQLLKIGSAIQRLRCELDIMNKCTSLCCKQCQETEITTKNEIFSLSLCGPMAAYVNPHGYVHETLTVYKACNLNLIGRPSTEHSWFPGYAWTVAQCKICASHIGWKFTATKKDMSPQKFWGLTRSALLPTIPDTEDEISPDKVILCL
